Results from US10005838B2, “Milk fat globule epidermal growth factor 8 regulates fatty acid uptake” (REGENTS OF THE UNIVERSITY OF CALIFORNIA, priority 2013, dated 2018).

Assays:
3T3-L1 adipocytes = test: Triglyceride content of 3T3-L1 adipocytes; format: cell-based, mouse; conditions: 3T3-L1 cells; 2, 4, 6, and 8 days after treatment; 10 μg/ml
Procedure: 3T3-L1 (Zen-Bio) fibroblasts were differentiated into adipocytes as described previously (Liao, J. et al., J Lipid Res 46, 597-602 (2005)). Briefly, 3T3-L1 fibroblasts were cultured to confluence on 10 cm tissue culture plates or in 6-well tissue culture dishes in DMEM supplemented with 10% FBS and 25 mM HEPES (normal medium). 2 days after reaching confluence, media was change and 3-isobutyl-1methylxanthine (Calbiochem), dexamethasone (Sigma), and insulin (Sigma) were added to the normal medium at concentrations of 0.5 mM, 1 μM, and 5 μg/mL, respectively, to induce adipocyte differentiation. After 2 days (and every 2 days thereafter), media was replaced with normal medium supplemented with 5 μg/mL insulin. Cells were harvested for use 6-10 days after differentiation. The human hepatocellular carcinoma cell line HepG2 was a generous gift of Dr. Ethan Weiss. Cells were propagated in Eagle's MEM supplemented with 10% fetal bovine serum.

FATP1 = test: Plasma membrane FATP1 expression in primary adipocytes; format: cell-based, mouse; conditions: Mfge8−/− adipocytes
Procedure: (§1) Following tissue preparation and SDS-PAGE, membranes were incubated with a polyclonal antibody against Akt (Cell Signaling Technology), or Rictor (Cell Signaling); Anti-PGC1 alpha antibody (abcam); a monoclonal antibody against Phospho-Akt Ser473 (Cell Signaling), Phospho-Rictor Thr1135 (Cell Signaling), GAPDH (Cell Signaling), or Mfge8 (R&D Systems). For evaluation of total AKT and total Rictor, membranes that been blotted for phospho-AKT and phospho-Rictor were stripped and reprobed. Plasma membrane and post-plasma membrane fractions were isolated as previously described (Nishiumi, S. & Ashida, H., Biosci Biotechnol Biochem 71, 2343-2346 (2007)).

[1] = Blood glucose after IP insulin injection; format: in vivo, mouse; conditions: mice, rMfge8 co-administered with insulin, antibodies as pretreatment 15 min before insulin
Procedure: Mice were fasted for 4 hours after which they were injected with 1.5 U/kg of insulin IP. Blood was collected from the tail vein immediately before injection and then again after 15, 30, 60, and 90 minutes for evaluation of blood glucose.
In experiments using RGE or Mfge8 construct: mice received 50 μg/kg body weight of recombinant protein. In experiments using function-blocking antibodies: 6-8 week-old mice were fasted for 4 hours and then each mouse received 0.5 μg antibody (integrins αv (clone RMV-7) and β5 (clone ALULA)) per gram body weight in total volume of 200 μl, 15 minutes later each mouse received an insulin injection (1.5 U/kg, intraperitoneal injection (IP)). Blood glucose levels were measured by sampling from the tail vein of mice from 15 minutes after insulin administered.

Rictor at threonine 1135 = test: Western blot, Rictor phosphorylation in 3T3-L1 adipocytes; format: cell-based, mouse
Procedure: as §1

primary mouse adipocytes = test: Fluorescent fatty acid uptake assay in primary mouse adipocytes; format: cell-based
Procedure: Uptake of fatty acids by differentiated 3T3-L1 adipocytes or primary mouse adipocytes was assessed using a QBT Fatty Acid Uptake Kit (Molecular Devices). Cells were plated in triplicate in 96-well plates at a concentration of 25,000 cells per well in 100 μl of DMEM/10% FCS. Plates were centrifuged at 1000 rpm for 4 minutes and incubated at 37° Celsius for 4-5 hours. Cells were then serum deprived for 1 hour before treatment with recombinant proteins for 30 minutes followed by the addition of QBT Fatty Acid Uptake solution. In experiments using function-blocking antibodies, antibodies against mouse integrins αv (clone RMV-7) (Takahashi, K. et al., J Immunol 145, 4371-4379 (1990)) β3 (clone 2C9.G2; BD Biosciences) (Ashkar, S. et al., Science 287, 860-864 (2000)), β5 (clone ALULA) (Su, G. et al., American journal of respiratory cell and molecular biology 36, 377-386 (2007)), 131 (clone HA2/5; BD Biosciences, anti-rat with cross-reactivity with mouse (Zovein, A. C. et al., Developmental cell 18, 39-51 (2010)), CD36 (clone MF3; Abcam) (Helming, L. et al., Journal of cell science 122, 453-459 (2009)), human integrins αv (clone L230) (Thomas, G. J. et al., British journal of cancer 87, 859-867 (2002)), β3 (clone Axum-2) (Su, G. et al., Am J Respir Crit Care Med 185, 58-66 (2012)), β5 (clone ALULA), β1 (clone P5D2), cycloRGD and cycloRAD (BACHEM) were added to cells after serum deprivation and cells were incubated for 20 minutes at 4° Celsius prior to addition of recombinant proteins. Plates were incubated in a fluorescent plate reader at 37° Celsius and kinetic readings were acquired every 20 seconds for 30 minutes. Fluorescence values were plotted against time and data was expressed as relative fluorescent units per minutes×10^3.
Primary mouse adipocytes were obtained from epididymal fat pads by collagenase digestion in Krebs-HEPES (KRBH) buffer followed by filtering through a 100 μm strainer which was then washed with an additional 7.5 mL KRBH buffer. Adipocytes were allowed to float to the top of the mixture for 5 minutes, and the solution under the adipocyte layer was removed with a syringe. The adipocytes were washed with 10 mL KRBH and again allowed to float to the surface, at which point the solution was again removed. This process was repeated for a total of 3 washes. After the last aspiration, adipocytes were resuspended in 0.5-1.0 mL and counted.
Primary mouse adipocyte progenitors from the vascular stromal fraction were isolated and cultured as reported previously (Tseng et al., 2008). In brief, subcutaneous white adipose tissue was removed, minced and digested with 1 mg/ml collagenase for 45 min at 37° C. in DMEM/F12 medium containing 1% BSA and antibiotics. Digested tissues were filtered through sterile 150 μm nylon mesh and centrifuged at 250 g for 5 min. […]

CD36 = test: Plasma membrane CD36 expression in primary cells; format: cell-based, mouse; conditions: primary Mfge8−/− adipocytes, hepatocytes, and enterocytes; to WT levels
Procedure: as §1

B1: rMfge8: recombinant Milk Fat Globule Epidermal Growth Factor 8, an integrin ligand, expressed in High 5 cells (protein)
chain: ASGDFCDSSLCLNGGTCLTGQDNDIYCLCPEGFTGLVCNETERGPCSPNPCYNDAKCLVTLDTQRGDIFTEYICQCPVGYSGIHCETETNYYNLDGEYMFTTAVPNTAVPTPAPTPDLSNNLASRCSTQLGMEGGAIADSQISASSVYMGFMGLQRWGPELARLYRTGIVNAWTASNYDSKPWIQVNLLRKMRVSGVMTQGASRAGRAEYLKTFKVAYSLDGRKFEFIQDESGGDKEFLGNLDNNSLKVNMFNPTLEAQYIKLYPVSCHRGCTLRFELLGCELHGCSEPLGLKNNTIPDSQMSASSSYKTWNLRAFGWYPHLGRLDNQGKINAWTAQSNSAKEWLQVDLGTQRQVTGIITQGARDFGHIQYVASYKVAHSDDGVQWTVYEEQGSSKVFQGNLDNNSHKKNIFEKPFMARYVRVLPVSWHNRITLRLELLGC
triglyceride content (3T3-L1 adipocytes): significantly greater | membrane expression of FATP1 (FATP1): increased | serum glucose levels after insulin injection as compared with insulin injection alone [1]: significantly higher | phosphorylation of Rictor at threonine 1135 (Rictor at threonine 1135): phosphorylated | fatty acid uptake in CD36−/− adipocytes (primary mouse adipocytes; CD36−/− adipocytes): did not significantly increase | fatty acid uptake in FATP1−/− adipocytes (primary mouse adipocytes; FATP1−/− adipocytes): did not significantly increase | fatty acid uptake in Mfge8−/− adipocytes (primary mouse adipocytes; Mfge8−/− primary adipocytes and differentiated adipocyte progenitors): rescued | WT fatty acid uptake (primary mouse adipocytes; WT adipocytes): significantly increased | membrane expression of CD36 (CD36): increased
